B1: 22055 (protein)
chain: MALPVTALLLPLALLLHAARPQLQLQESGPGLVKPSETLSLTCTVSGDSISSGDYYWGWIRQPPGKGLEWIGHIYYSGVTYYNPSLKSRVTISVDTSRNQFSLKLSSVTAADTAVYYCTREDSSNWRSRGQGTLVTVSSLEGSEVKTDSTDHVKPKETENTKQPSKSCHKPKAIVHTEKVNMMSLTVLGLRMLFAKTVAVNFLLTAKLFFLRAKRSGSGVKQTLNFDLLKLAGDVESNPGPTSMDWIWRILFLVGAATGAHSFEVQLVESGGGVVQPGRSLRLSCAASGFSFSGYGMHWVRQAPGKGLEWVAYISYDGSNKYYADSVKGRFTISRDNSKNTLYLQMNSLRAEDTAVYYCAKDPAWGLRLGESSSYDFDIWGQGTMVTVSSTRGSGRADCGFTSESYQQGVLSATILYEILLGKATLYAVLVSALVLMAMVKRKDSRGRAKRSGSGATNFSLLKQAGDVEENPGPSRGHMTEYKPTVRLATRDDVPRAVRTLAAAFADYPATRHTVDPDRHIERVTELQELFLTRVGLDIGKVWVADDGAAVAVWTTPESVEAGAVFAEIGPRMAELSGSRLAAQQQMEGLLAPHRPKEPAWFLATVGVSPDHQGKGLGSAVVLPGVEAAERAGVPAFLETSAPRNLPFYERLGFTVTADVEVPEGPRTWCMTRKPGA
B2: 22058 (protein)
chain: MALPVTALLLPLALLLHAARPQLQLQESGPGLVKPSETLSLTCTVSGDSISSGDYYWGWIRQPPGKGLEWIGHIYYSGVTYYNPSLKSRVTISVDTSRNQFSLKLSSVTAADTAVYYCTREDSSNWRSRGQGTLVTVSSLEDLKNVFPPEVAVFEPSEAEISHTQKATLVCLATGFYPDHVELSWWVNGKEVHSGVCTDPQPLKEQPALNDSRYCLSSRLRVSATFWQNPRNHFRCQVQFYGLSENDEWTQDRAKPVTQIVSAEAWGRADCGFTSESYQQGVLSATILYEILLGKATLYAVLVSALVLMAMVKRKDSRGRAKRSGSGATNFSLLKQAGDVEENPGPTSMDWIWRILFLVGAATGAHSFEVQLVESGGGVVQPGRSLRLSCAASGFSFSGYGMHWVRQAPGKGLEWVAYISYDGSNKYYADSVKGRFTISRDNSKNTLYLQMNSLRAEDTAVYYCAKDPAWGLRLGESSSYDFDIWGQGTMVTVSSTRIQNPDPAVYQLRDSKSSDKSVCLFTDFDSQTNVSQSKDSDVYITDKCVLDMRSMDFKSNSAVAWSNKSDFACANAFNNSIIPEDTFFPSPESSCDVKLVEKSFETDTNLNFQNLSVIGFRILLLKVAGFNLLMTLRLWSSRAKRSGSGVKQTLNFDLLKLAGDVESNPGPSRGHMTEYKPTVRLATRDDVPRAVRTLAAAFADYPATRHTVDPDRHIERVTELQELFLTRVGLDIGKVWVADDGAAVAVWTTPESVEAGAVFAEIGPRMAELSGSRLAAQQQMEGLLAPHRPKEPAWFLATVGVSPDHQGKGLGSAVVLPGVEAAERAGVPAFLETSAPRNLPFYERLGFTVTADVEVPEGPRTWCMTRKPGA
B3: 22286 (protein)
chain: MALPVTALLLPLALLLHAARPACLFNQEVQIPLTESYCGPCPKNWICYKNNCYQFFDESKNWYESQASCMSQNASLLKVYSKEDQDLLKLVKSAHWMGLVHIPTNGSWQWEDGSILSPNLLTIIEMQKGDCALYASSFKGYIENCSTPNTYICMQRTVLEGQPKANPTVTLFPPSSEELQANKATLVCLISDFYPGAVTVAWKADGSPVKAGVETTKPSKQSNNKYAASSYLSLTPEQWKSHRSYSCQVTHEGSTVEKTVAPTECSPIKTDVITMDPKDNCSKDANDTLLLQLTNTSAYYMYLLLLLKSVVYFAIITCCLLRRTAFCCNGEKSRAKRSGSGATNFSLLKQAGDVEENPGPTSATMDWIWRILFLVGAATGAHSGPQVQLQESGGGLAQAGGSLRLSCAASGRTFSMGWFRQAPGKEREFVAAITYSGGSPYYASSVRGRFTISRDNAKNTVYLQMNSLKPEDTAVYYCAANPTYGSDWNAENWGQGTQVTVSSGSGGGGSGGGGSGGGGSFEQVQLQQPGAELVKPGASVKMSCKASGYAFSSYWINWMKQKPGQGLEWIGQIYPGDGDTNYNGKFKGRATLTADTSSSTAYMQLSSLTSEDSAVYFCARSITTVVGCAMDYWGQGTSVTVSSTRASTKGPSVFPLAPSSKSTSGGTAALGCLVKDYFPEPVTVSWNSGALTSGVHTFPAVLQSSGLYSLSSVVTVPSSSLGTQTYICNVNHKPSNTKVDKRVEPKSCEVKTDSTDHVKPKETENTKQPSKSCHKPKAIVHTEKVNMMSLTVLGLRMLFAKTVAVNFLLTAKLFFLRAKRSGSGVKQTLNFDLLKLAGDVESNPGPSRGHMTEYKPTVRLATRDDVPRAVRTLAAAFADYPATRHTVDPDRHIERVTELQELFLTRVGLDIGKVWVADDGAAVAVWTTPESVEAGAVFAEIGPRMAELSGSRLAAQQQMEGLLAPHRPKEPAWFLATVGVSPDHQGKGLGSAVVLPGVEAAERAGVPAFLETSAPRNLPFYERLGFTVTADVEVPEGPRTWCMTRKPGA
B4: 22057 (protein)
chain: MALPVTALLLPLALLLHAARPQLQLQESGPGLVKPSETLSLTCTVSGDSISSGDYYWGWIRQPPGKGLEWIGHIYYSGVTYYNPSLKSRVTISVDTSRNQFSLKLSSVTAADTAVYYCTREDSSNWRSRGQGTLVTVSSLEGSEVKTDSTDHVKPKETENTKQPSKSCHKPKAIVHTEKVNMMSLTVLGLRMLFAKTVAVNFLLTAKLFFLRAKRSGSGVKQTLNFDLLKLAGDVESNPGPTSMDWIWRILFLVGAATGAHSFEVQLVESGGGVVQPGRSLRLSCAASGFSFSGYGMHWVRQAPGKGLEWVAYISYDGSNKYYADSVKGRFTISRDNSKNTLYLQMNSLRAEDTAVYYCAKDPAWGLRLGESSSYDFDIWGQGTMVTVSSTRDKTHTCPPCPAGRADCGFTSESYQQGVLSATILYEILLGKATLYAVLVSALVLMAMVKRKDFRAKRSGSGATNFSLLKQAGDVEENPGPSRGHMTEYKPTVRLATRDDVPRAVRTLAAAFADYPATRHTVDPDRHIERVTELQELFLTRVGLDIGKVWVADDGAAVAVWTTPESVEAGAVFAEIGPRMAELSGSRLAAQQQMEGLLAPHRPKEPAWFLATVGVSPDHQGKGLGSAVVLPGVEAAERAGVPAFLETSAPRNLPFYERLGFTVTADVEVPEGPRTWCMTRKPGA
B5: 22288 (protein)
chain: MALPVTALLLPLALLLHAARPACLFNQEVQIPLTESYCGPCPKNWICYKNNCYQFFDESKNWYESQASCMSQNASLLKVYSKEDQDLLKLVKSAHWMGLVHIPTNGSWQWEDGSILSPNLLTIIEMQKGDCALYASSFKGYIENCSTPNTYICMQRTVLEGQPKANPTVTLFPPSSEELQANKATLVCLISDFYPGAVTVAWKADGSPVKAGVETTKPSKQSNNKYAASSYLSLTPEQWKSHRSYSCQVTHEGSTVEKTVAPTECSPIKTDVITMDPKDNCSKDANDTLLLQLTNTSAYYMYLLLLLKSVVYFAIITCCLLRRTAFCCNGEKSRAKRSGSGATNFSLLKQAGDVEENPGPTSATMDWIWRILFLVGAATGAHSGPQVQLQESGGGLAQAGGSLRLSCAASGRTFSMGWFRQAPGKEREFVAAITYSGGSPYYASSVRGRFTISRDNAKNTVYLQMNSLKPEDTAVYYCAANPTYGSDWNAENWGQGTQVTVSSGSGGGGSGGGGSGGGGSFEDLFNQEVQIPLTESYCGPCPKNWICYKNNCYQFFDESKNWYESQASCMSQNASLLKVYSKEDQDLLKLVKSAHWMGLVHIPTNGSWQWEDGSILSPNLLTIIEMQKGDCALYASSFKGFIENCSTPNTYICMQRTVTRASTKGPSVFPLAPSSKSTSGGTAALGCLVKDYFPEPVTVSWNSGALTSGVHTFPAVLQSSGLYSLSSVVTVPSSSLGTQTYICNVNHKPSNTKVDKRVEPKSCEVKTDSTDHVKPKETENTKQPSKSCHKPKAIVHTEKVNMMSLTVLGLRMLFAKTVAVNFLLTAKLFFLRAKRSGSGVKQTLNFDLLKLAGDVESNPGPSRGHMTEYKPTVRLATRDDVPRAVRTLAAAFADYPATRHTVDPDRHIERVTELQELFLTRVGLDIGKVWVADDGAAVAVWTTPESVEAGAVFAEIGPRMAELSGSRLAAQQQMEGLLAPHRPKEPAWFLATVGVSPDHQGKGLGSAVVLPGVEAAERAGVPAFLETSAPRNLPFYERLGFTVTADVEVPEGPRTWCMTRKPGA

Legend:
RAJI cells = assay: JNG assay, co-culture with RAJI cells; assay type: cell-based; conditions: JNG cells expressing construct, co-culture with Raji
Procedure, shortened: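 Read-out is NFAT-driven GFP measured by flow cytometry after ~4–18 h co-culture of SAR-expressing JNG cells with target cells (E:T about 1:2). SARs were introduced by lentiviral spinfection and selected with puromycin or blasticidin when possible; scores (+/- to 5+ ≈ 5–50% GFP+) are relative to parental JNG cells.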

LNCaP cells = assay: JNG assay, co-culture with LNCaP cells; assay type: cell-based; conditions: for NFAT-GFP ASSAY: LNCaP: co-culture with LNCaP; for NFAT-GFP ASSAY: LNCaP with PSMA-USC76-chVH-G4S-ULBP2-S3: LNCaP in presence of SAR adaptor PSMA-USC76-chVH-G4S-ULBP2-S3
Procedure, shortened: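 Read-out: % GFP-positive cells by flow cytometry after ~4 to 18 h coculture of SAR-transduced JNG cells with targets (E:T about 1:2). Scores reflect GFP induction above parental JNG controls: +/- ≈5%, + ≈10%, up to 5+ ≈50%.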

Row | Molecule | NFAT-GFP ASSAY: Raji (RAJI cells) | NFAT-GFP ASSAY: LNCaP (LNCaP cells) | NFAT-GFP ASSAY: LNCaP with PSMA-USC76-chVH-G4S-ULBP2-S3 (LNCaP cells)
1 | B1 | +/- (refer to approximately 5%, 10%, 20%, 30%, 40% and 50% GFP positive cells) | + (refer to approximately 5%, 10%, 20%, 30%, 40% and 50% GFP positive cells) | 
2 | B2 | +/- (refer to approximately 5%, 10%, 20%, 30%, 40% and 50% GFP positive cells) | + (refer to approximately 5%, 10%, 20%, 30%, 40% and 50% GFP positive cells) | 
3 | B3 | + (refer to approximately 5%, 10%, 20%, 30%, 40% and 50% GFP positive cells) |  | + (refer to approximately 5%, 10%, 20%, 30%, 40% and 50% GFP positive cells)
4 | B4 | +/- (refer to approximately 5%, 10%, 20%, 30%, 40% and 50% GFP positive cells) | + (refer to approximately 5%, 10%, 20%, 30%, 40% and 50% GFP positive cells) | 
5 | B5 | 3+ (refer to approximately 5%, 10%, 20%, 30%, 40% and 50% GFP positive cells) |  | + (refer to approximately 5%, 10%, 20%, 30%, 40% and 50% GFP positive cells)

— patent US20230212319A1, “NOVEL ANTIGEN BINDING DOMAINS AND SYNTHETIC ANTIGEN RECEPTORS INCORPORATING THE SAME” (University of Southern California, priority 2020, published 2023)
